Experimental data from US20040057952A1 (IMMUNOGEN, published 2004).

Biological target: T1, Muc16 on tumor cells (human, UniProt Q8WXI7 1-14507)
T1 construct: whole, on cells; Endogenous protein; also called CA125
Assay: flow cytometry on WISH cells

B1: OC125 (antibody)
chain 1: QVQLQESGPELVKPGASVKISCKASGYTFTDYNMHWVKQSHGKSLEWIGYIYPYNGDTGYNQKFRNKASLTVDTSSSTAYMELRSLTSEDSAVYYWARSGGFWYFDVWGQGGTTVTVSS
chain 2: DIQMTQSPAILSASPGEKVTMTCRATPSVSYMHWYQQKPGSSPKPLIYTTSNLASGVPARFSGGGSGTSYSLTVSRVEVEDAATYYCQQWSRSPPTFGAGTKLEIK
- fold fluorescence shift at saturation binding against MJ-171: > 5 fold
